According to patent US20240034774A1:
Changes are numbered by the printed parent chain.

Experiments:
Assay in all cases: cell-based or functional assay
[1] = molecular target: HIV-1 envelope glycoprotein gp120 of virus 7141 (HIV-1)
[2] = molecular target: HIV-1 envelope glycoprotein gp120 of virus 92US727 (HIV-1)
[3] = molecular target: HIV-1 envelope glycoprotein gp120 of virus VS001 (HIV-1)
[4] = molecular target: 152 patient-derived subtype B viruses obtained from pre-ART plasma

B1: 3.1.9-1 (antibody, human IgG1, kappa, V domains shown)
VH: QVQLLQSGAAVTKPGASVRVSCEASGYNIRDYFIHWWRQAPGQGLQWVGWINPKTGQPNNPRQFQGRVSLTRHASWDFDTFSFYMDLKALRSDDTAVYFCARQRSDYWDFDVWGSGTQVTVSS
VL: DIQMTQSPSSLSARVGDTATITCQANGYLNWYQQRRGKAPKLLIYDGSKLERGVPARFSGRRWGQEYNLTINNLQPEDVATYFCQVYEFFGPGTRLDLKR
neutralization IC50 [1]: 4.35 µg/mL | neutralization IC50 [2]: 3.54 µg/mL | neutralization IC50 [3]: 0.16 µg/mL

B2: 2.3.12-1 (antibody, human IgG1, kappa, V domains shown)
VH: B1 VH with Q3H, L5S, L90V, V97I
VL: B1 VL with N68I
neutralization IC50 [1]: 23.8 µg/mL | neutralization IC50 [2]: > 50 µg/mL | neutralization IC50 [3]: 1.92 µg/mL

B3: 2.3.15-1 (antibody, human IgG1, kappa, V domains shown)
VH: B1 VH with Q3H, L5S, L90V, V97I
VL: B1 VL with N68T
neutralization IC50 [1]: 5.93 µg/mL | neutralization IC50 [2]: > 50 µg/mL | neutralization IC50 [3]: 0.85 µg/mL

B4: 2.3.9-1 (antibody, human IgG1, kappa, V domains shown)
VH: B1 VH with Q3H, L5S, L90V, V97I
VL: B1 VL
neutralization IC50 [1]: 2.56 µg/mL | neutralization IC50 [2]: 11.1 µg/mL | neutralization IC50 [3]: 0.22 µg/mL

B5: 1.1.119-1 (antibody, human IgG1, kappa, V domains shown)
VH: B1 VH
VL: B1 VL with R14S, T18R, A56S, R61S, N68T, N72S, N73S, V79I
neutralization IC50 [1]: 6.92 µg/mL | neutralization IC50 [2]: > 50 µg/mL | neutralization IC50 [3]: 0.39 µg/mL

B6: 2.2.13-1 (antibody, human IgG1, kappa, V domains shown)
VH: B1 VH with Q3H, L5S, N28K, Y32H, L90V, V97I
VL: B1 VL with T18R, R61S, N68I, N72S, N73S
neutralization IC50 [1]: 3.8 µg/mL | neutralization IC50 [2]: > 50 µg/mL | neutralization IC50 [3]: 1.48 µg/mL

B7: 3.1.7-1 (antibody, human IgG1, kappa, V domains shown)
VH: B1 VH
VL: B1 VL with T18R, R61S, N68T, N72S, N73S
neutralization IC50 [1]: 5.65 µg/mL | neutralization IC50 [2]: > 50 µg/mL | neutralization IC50 [3]: 0.3 µg/mL

B8: 2.2.12-1 (antibody, human IgG1, kappa, V domains shown)
VH: B1 VH with Q3H, L5S, N28K, Y32H, L90V, V97I
VL: B1 VL with N68I
neutralization IC50 [1]: 7.08 µg/mL | neutralization IC50 [2]: > 50 µg/mL | neutralization IC50 [3]: 2.1 µg/mL

B9: 2.2.17-1 (antibody, human IgG1, kappa, V domains shown)
VH: B1 VH with Q3H, L5S, N28K, Y32H, L90V, V97I
VL: B1 VL with N68H
neutralization IC50 [1]: 6.28 µg/mL | neutralization IC50 [2]: > 50 µg/mL | neutralization IC50 [3]: 4.38 µg/mL

B10: 1.1.78-1 (antibody, human IgG1, kappa, V domains shown)
VH: B1 VH
VL: B1 VL with R14S, A56S, N68H, V79I
neutralization IC50 [1]: 29.5 µg/mL | neutralization IC50 [2]: > 50 µg/mL | neutralization IC50 [3]: 3.3 µg/mL

B11: 1.1.117-1 (antibody, human IgG1, kappa, V domains shown)
VH: B1 VH
VL: B1 VL with R14S, A56S, N68I, V79I
neutralization IC50 [1]: 16.9 µg/mL | neutralization IC50 [2]: > 50 µg/mL | neutralization IC50 [3]: 3.03 µg/mL

B12: 3.1.13-1 (antibody, human IgG1, kappa, V domains shown)
VH: B1 VH
VL: B1 VL with T18R, R61S, N68I, N72S, N73S
neutralization IC50 [1]: 13.2 µg/mL | neutralization IC50 [2]: > 21 µg/mL | neutralization IC50 [3]: 0.56 µg/mL

B13: Antibody 1.52.90-1 (antibody, V domains shown)
VH: B1 VH with W76F
VL: B1 VL with R14S, T18R, A56S, R61S, N72S, N73S, V79I
Breadth (% viruses neutralized with an IC95 ≤ 50 µg/mL) [4]: 78% | Geomean IC95 [4]: 4.56 µg/mL | Median IC95 [4]: 4.42 µg/mL

B14: 2.2.9-1 (antibody, human IgG1, kappa, V domains shown)
VH: B1 VH with Q3H, L5S, N28K, Y32H, L90V, V97I
VL: B1 VL
neutralization IC50 [1]: 1.75 µg/mL | neutralization IC50 [2]: 13.1 µg/mL | neutralization IC50 [3]: 0.15 µg/mL

B15: 2.2.18-1 (antibody, human IgG1, kappa, V domains shown)
VH: B1 VH with Q3H, L5S, N28K, Y32H, L90V, V97I
VL: B1 VL with T18R, R61S, N68H, N72S, N73S
neutralization IC50 [1]: 5.04 µg/mL | neutralization IC50 [2]: > 34 µg/mL | neutralization IC50 [3]: 2.51 µg/mL

B16: 1.1.104-1 (antibody, human IgG1, kappa, V domains shown)
VH: B1 VH
VL: B1 VL with R14S, A56S, N68T, V79I
neutralization IC50 [1]: 5.13 µg/mL | neutralization IC50 [2]: > 50 µg/mL | neutralization IC50 [3]: 0.45 µg/mL

B17: 3.1.12-1 (antibody, human IgG1, kappa, V domains shown)
VH: B1 VH
VL: B1 VL with N68I
neutralization IC50 [1]: 24.5 µg/mL | neutralization IC50 [2]: > 41 µg/mL | neutralization IC50 [3]: 2.41 µg/mL

B18: 2.3.13-1 (antibody, human IgG1, kappa, V domains shown)
VH: B1 VH with Q3H, L5S, L90V, V97I
VL: B1 VL with T18R, R61S, N68I, N72S, N73S
neutralization IC50 [1]: 15.5 µg/mL | neutralization IC50 [2]: > 38 µg/mL | neutralization IC50 [3]: 1.5 µg/mL

B19: 2.3.18-1 (antibody, human IgG1, kappa, V domains shown)
VH: B1 VH with Q3H, L5S, L90V, V97I
VL: B1 VL with T18R, R61S, N68H, N72S, N73S
neutralization IC50 [1]: > 23 µg/mL | neutralization IC50 [2]: > 23 µg/mL | neutralization IC50 [3]: 2.37 µg/mL

B20: 2.3.17-1 (antibody, human IgG1, kappa, V domains shown)
VH: B1 VH with Q3H, L5S, L90V, V97I
VL: B1 VL with N68H
neutralization IC50 [1]: 31.3 µg/mL | neutralization IC50 [2]: > 50 µg/mL | neutralization IC50 [3]: 4.54 µg/mL

B21: 2.2.7-1 (antibody, human IgG1, kappa, V domains shown)
VH: B1 VH with Q3H, L5S, N28K, Y32H, L90V, V97I
VL: B1 VL with T18R, R61S, N68T, N72S, N73S
neutralization IC50 [1]: 1.58 µg/mL | neutralization IC50 [2]: > 50 µg/mL | neutralization IC50 [3]: 0.27 µg/mL

B22: 2.3.7-1 (antibody, human IgG1, kappa, V domains shown)
VH: B1 VH with Q3H, L5S, L90V, V97I
VL: B1 VL with T18R, R61S, N68T, N72S, N73S
neutralization IC50 [1]: 5.08 µg/mL | neutralization IC50 [2]: > 50 µg/mL | neutralization IC50 [3]: 0.47 µg/mL

B23: 3.1.15-1 (antibody, human IgG1, kappa, V domains shown)
VH: B1 VH
VL: B1 VL with N68T
neutralization IC50 [1]: 9.1 µg/mL | neutralization IC50 [2]: > 33 µg/mL | neutralization IC50 [3]: 0.49 µg/mL

B24: 1.1.118-1 (antibody, human IgG1, kappa, V domains shown)
VH: B1 VH
VL: B1 VL with R14S, T18R, A56S, R61S, N68I, N72S, N73S, V79I
neutralization IC50 [1]: 20.2 µg/mL | neutralization IC50 [2]: > 50 µg/mL | neutralization IC50 [3]: 2.4 µg/mL

B25: 3.1.18-1 (antibody, human IgG1, kappa, V domains shown)
VH: B1 VH
VL: B1 VL with T18R, R61S, N68H, N72S, N73S
neutralization IC50 [1]: > 9.8 µg/mL | neutralization IC50 [2]: > 9.8 µg/mL | neutralization IC50 [3]: 3.52 µg/mL

B26: 2.2.15-1 (antibody, human IgG1, kappa, V domains shown)
VH: B1 VH with Q3H, L5S, N28K, Y32H, L90V, V97I
VL: B1 VL with N68T
neutralization IC50 [1]: 1.99 µg/mL | neutralization IC50 [2]: > 50 µg/mL | neutralization IC50 [3]: 0.37 µg/mL

B27: 3.1.17-1 (antibody, human IgG1, kappa, V domains shown)
VH: B1 VH
VL: B1 VL with N68H
neutralization IC50 [1]: 25.5 µg/mL | neutralization IC50 [2]: > 50 µg/mL | neutralization IC50 [3]: 2.21 µg/mL

B28: 1.1.102-1 (antibody, human IgG1, kappa, V domains shown)
VH: B1 VH
VL: B1 VL with R14S, T18R, A56S, R61S, N68H, N72S, N73S, V79I
neutralization IC50 [1]: 22.7 µg/mL | neutralization IC50 [2]: > 50 µg/mL | neutralization IC50 [3]: 3 µg/mL
